This is an account of results in patent US20160311912A1 (RINAT NEUROSCIENCE, published 2016).

The target in assay [1] is human glucagon receptor on stably transfected CHO cells (human, UniProt P47871 26-477). Briefly: cell-based or functional assay.
Assay [2] concerns the target T1, glucagon receptor (target of the KD / T½ of Tables 1A, 1B and 2B) (Homo sapiens (Human), UniProt P47871 26-136).
T1 construct: not shown: Human Fc carrier (and any linker) of the ECD-Fc fusion
The assay is described as follows: not stated (column of Table 1A).

Assay [3] has as its target T2, Human glucagon receptor extracellular domain human Fc fusion protein (human, UniProt P47871 26-136, limits assumed).
T2 construct: also called glucagon receptor Fc fusion protein; not shown: human Fc
Briefly: SPR (Biacore T200), receptor-Fc captured on anti-human Fc chip, mAb5 Fab as analyte, 25° C. As to the method: (§1) An anti-human Fc sensor chip was prepared by activating all flow cells of a Biacore CM4 sensor chip with a 1:1 (v/v) mixture of 400 mM EDC and 100 mM NHS for 7 minutes, at a flow rate of 10 μL/min. Goat anti-human Fc antibody (Southern Biotech) was diluted to 50 μg/mL in 10 mM sodium acetate pH 5.0 and injected on all flow cells for 7 minutes at 20 μL/min. All flow cells were blocked with 100 mM ethylenediamine in 150 mM borate buffer pH 8.5 for 7 minutes at 10 μL/min. The running buffer for this immobilization procedure was 10 mM HEPES, 150 mM NaCl, 0.05% (v/v) TWEEN® 20, pH 7.4.
(§2) The following kinetics experiments were performed at 25° C. and 37° C. using a running buffer of 10 mM HEPES, 150 mM NaCl, 0.05% (v/v) TWEEN® 20, pH 7.4, 1 mg/mL BSA.
(§3) All experiments were performed on a Biacore™ T200 surface Plasmon resonance biosensor (GE Lifesciences, Piscataway N.J.). Human and cynomolgus monkey (cyno) glucagon receptor extracellular domain human Fc fusion proteins were captured onto downstream flow cells (flow cells 2, 3, respectively) at 2 μg/mL at a flow rate of 10 μL/min for 3 minutes. Flow cell 1 was used as a blank reference surface. Following capture of glucagon receptor Fc fusion proteins, analyte (buffer, or mAb5 Fab) was injected at 30 μL/min on all flow cells for two minutes. Multiple mAb5 Fab analyte concentrations were tested. The mAb5 Fab analyte concentrations were 0.16, 0.8, 4, 20 and 100 nM. After the analyte injection, dissociation was monitored for 10 minutes (for the 20 nM and 100 nM mAb5 Fab analyte samples) or 30 seconds (for the 0.16, 0.8, and 4 nM mAb5 Fab analyte samples). Dissociation was monitored for 30 seconds and 10 minutes for buffer analyte cycles. Following analyte binding and dissociation all flow cells were regenerated with four 1-minute injections of 75 mM phosphoric acid. The sensorgram data were double referenced prior to curve fitting (double referencing as described in Myszka, D. G., 1999, J. Mol. Recognit., 12:279-284. The double referenced sensorgrams were fit globally to a simple 1:1 Langmuir with mass transport binding model using the Biacore™ T200 evaluation software. The binding affinity data for anti-glucagon receptor antagonist antibody mAb5 binding to human and cyno glucagon receptor are shown below in Table 4.
(Surface plasmon resonance follows binding to a sensor surface in real time, without labels.)

The target in assay [4] is T3, Cynomolgus monkey (cyno) glucagon receptor extracellular domain human Fc fusion protein (cynomolgus monkey).
T3 construct: extracellular domain
Described as above. As for the experimental part:
as §1, §2, §3

Assay [5] addresses T2, Human glucagon receptor extracellular …. Briefly: SPR (Biacore T200), receptor-Fc captured on anti-human Fc chip, mAb5 Fab as analyte, 37° C. As to the method: as §1, §2, §3
Assay [6] deals with T3, Cynomolgus monkey (cyno) glucagon …. The description is as above. As for the experimental part: as §1, §2, §3
For assay [7] the target is unchanged. Briefly: SPR (Biacore T200), receptor-Fc captured on anti-human Fc chip, mAb5 Fab as analyte, 25° C.; limit reported. As for the experimental part: as §1, §2
(§4) All experiments were performed on a Biacore™ T200 surface Plasmon resonance biosensor (GE Lifesciences, Piscataway N.J.). Human and cynomolgus monkey (cyno) glucagon receptor extracellular domain human Fc fusion proteins were captured onto downstream flow cells (flow cells 2, 3, respectively) at 2 μg/mL at a flow rate of 10 μL/min for 3 minutes. […] After the analyte injection, dissociation was monitored for 10 minutes (for the 20 nM and 100 nM mAb5 Fab analyte samples) or 30 seconds (for the 0.16, 0.8, and 4 nM mAb5 Fab analyte samples). Dissociation was monitored for 30 seconds and 10 minutes for buffer analyte cycles. […]

The target is the same in assay [8]. The assay is described as follows: SPR (Biacore T200), receptor-Fc captured on anti-human Fc chip, mAb5 Fab as analyte, 25° C.; dissociation too slow, limit reported. As to the method: as §1, §2, §4

For orientation: Kd means the constant that tells how readily two partners part at equilibrium. A word on the koff: it is a measure of how fast the partners let go of each other. As a reminder, the kon is the second-order rate constant of association.

T2 sequence (P47871 26-136 limits assumed): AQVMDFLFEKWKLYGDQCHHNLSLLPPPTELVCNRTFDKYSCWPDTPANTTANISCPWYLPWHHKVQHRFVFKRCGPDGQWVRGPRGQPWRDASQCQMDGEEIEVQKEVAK
Sequence of human glucagon receptor on stably transfected CHO cells (P47871 26-477 limits assumed): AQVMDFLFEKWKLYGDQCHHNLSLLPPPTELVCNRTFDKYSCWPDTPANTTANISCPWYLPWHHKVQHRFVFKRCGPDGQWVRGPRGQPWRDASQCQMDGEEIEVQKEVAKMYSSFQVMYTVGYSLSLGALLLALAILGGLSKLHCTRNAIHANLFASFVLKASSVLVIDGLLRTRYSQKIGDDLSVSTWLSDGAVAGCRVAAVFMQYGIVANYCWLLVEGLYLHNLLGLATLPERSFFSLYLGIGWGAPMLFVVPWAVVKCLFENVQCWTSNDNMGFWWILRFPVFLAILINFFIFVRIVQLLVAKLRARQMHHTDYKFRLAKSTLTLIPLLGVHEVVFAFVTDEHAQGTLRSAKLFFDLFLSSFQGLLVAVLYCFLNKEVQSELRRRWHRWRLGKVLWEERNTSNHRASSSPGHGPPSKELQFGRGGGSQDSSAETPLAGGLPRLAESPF
T1 sequence (P47871 26-136 limits assumed): as the sequence (P47871 26-136 limits assumed) above

B1: anti-glucagon receptor antagonist antibody mAb5 (antibody, V domains shown)
VH: QVQLVQSGAEVKKPGASVKVSCKASGYTFTDFSVHWVRQAPGQGLEWMGWINTETDETSYADDFKGRVTMTRDTSTSTVYMELSSLRSEDTAVYYCVKSRYWSYGPPDYWGQGTTVTVSS
VL: DIQMTQSPSSLSASVGDRVTITCQASQNIRTAVVWYQQKPGKAPKLLIYLASNRHSGVPSRFSGSGSGTDFTFTISSLQPEDIATYYCLQHWTYPFTFGGGTKVEIKR
notes: Fluorescence-labeled in the yeast display experiment
In the case of B1, in assay [1], the “IC50 (read off the curve)” value was ~1 µg/mL. In assay [2], the Kd came to 0.224 nM.

B2: mAb5 Fab (Fab, V domains shown)
VH: B1 VH
VL: DIQMTQSPSSLSASVGDRVTITCQASQNIRTAVVWYQQKPGKAPKLLIYLASNRHSGVPSRFSGSGSGTDFTFTISSLQPEDIATYYCLQHWTYPFTFGGGTKVEIK
notes: also called Fab of anti-glucagon receptor antagonist antibody mAb5
Take B2: the Kd in assay [3] was 0.22 nM; in assay [5] it was 0.75 nM; in assay [6], 0.72 nM; in assay [7], < 0.17 nM. For the same molecule, the koff in assay [3] is 0.0001 s⁻¹; in assay [5], 0.00049 s⁻¹; in assay [6], 0.00054 s⁻¹; in assay [8] it was < 8.5e-05 s⁻¹. The kon in assay [3] was determined as 460000 M⁻¹ s⁻¹; in assay [4], 500000 M⁻¹ s⁻¹; in assay [5], 650000 M⁻¹ s⁻¹; in assay [6], 750000 M⁻¹ s⁻¹. The t1/2 was 116 min in assay [3], 24 min in assay [5], 21 min in assay [6] and > 136 min in assay [7].
